Experimental data from patent publication US20240368575A1, “AN ENGINEERED YEAST CELL FOR THE DELIVERY OF ANTIBIOTIC-INACTIVATING ENZYMES” (priority 2021, published 2024).

Tests used:
[1] = tested on: C[C@@H](O)[C@H]1C(=O)N2C(C(=O)O)=C(SCCN=CN)C[C@H]12; assay: purified protein, by the assay type; conditions: other: purified BL3 protein, assay with imipenem, 30° C., 50 mM HEPES pH 7.5, 50 μM ZnSO4
[2] = molecular target: VIM-2 metallo-beta-lactamase variant (BL2), SEQ ID NO:115 (parent VIM-2, SEQ ID NO:8) (Pseudomonas aeruginosa, UniProt Q9K2N0, E156D/Q48H/Q60R/V27S/V36A); assay: Steady-state kinetic parameters of purified BL2 beta-lactamase, imipenem hydrolysis; format: biochemical; conditions: purified BL2 protein; assay with imipenem, 30° C., 50 mM HEPES pH 7.5, 50 μM ZnSO4
Experimental: β-lactamase genes bl2 and bl3, encoding respectively the metallo β-lactamases VIM-2 variant of amino acid sequence SEQ ID NO:115 and BcII from Bacillus cereus of amino acid sequence SEQ ID NO:117, were heterologously expressed in S. boulardii.
Each sample was measured in triplicates.

[3] = molecular target: P3A variant of the beta-lactamase from Bacillus licheniformis 749/C (BL), SEQ ID NO: 12 (Bacillus licheniformis, UniProt P00808, D288N); assay: Steady-state kinetic parameters of purified BL (P3A) beta-lactamase, ampicillin hydrolysis; format: biochemical; conditions: purified BL protein; assay with ampicillin, 30° C., 50 mM HEPES pH 7.5
[4] = tested on: CC1(C)S[C@@H]2[C@H](NC(=O)[C@H](N)c3ccccc3)C(=O)N2[C@H]1C(=O)O; assay: as above; format: biochemical, Bacillus licheniformis 749/C; conditions: other: purified BL protein, assay with ampicillin, 30° C., 50 mM HEPES pH 7.5

Chain of P3A variant of the beta-lactamase from Bacillus licheniformis 749/C (BL), SEQ ID NO: 12 (P00808 46-307 D288N): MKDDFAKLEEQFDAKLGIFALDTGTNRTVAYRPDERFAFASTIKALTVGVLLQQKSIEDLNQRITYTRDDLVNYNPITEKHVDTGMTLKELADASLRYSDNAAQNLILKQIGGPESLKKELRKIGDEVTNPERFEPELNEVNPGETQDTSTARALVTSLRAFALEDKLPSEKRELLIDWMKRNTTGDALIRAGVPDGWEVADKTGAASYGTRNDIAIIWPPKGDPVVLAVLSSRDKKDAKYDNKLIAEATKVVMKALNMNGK

BcII metallo-beta-lactamase from Bacillus cereus (BL3), SEQ ID NO:117 (Bacillus cereus)
Km [1]: 220 µM | kcat [1]: 115 s⁻¹

C[C@@H](O)[C@H]1C(=O)N2C(C(=O)O)=C(SCCN=CN)C[C@H]12 [imipenem]
Km [2]: 12 µM | kcat [2]: 200 s⁻¹

CC1(C)S[C@@H]2[C@H](NC(=O)[C@H](N)c3ccccc3)C(=O)N2[C@H]1C(=O)O [ampicillin]
kcat [3]: 1,345 s^−1

P3A variant of the beta-lactamase from Bacillus licheniformis 749/C (BL), SEQ ID NO: 12 (Bacillus licheniformis; D288N)
Km [4]: 180 µM
